Data as given in patent US20240360201A1 (BIOCYTOGEN PHARMACEUTICALS BEIJING, published 2024).

Biological target: human CD40 (hCD40-his) (human, UniProt P25942 21-193)
Assay: SPR Biacore T200; binder captured on protein A chip, target as analyte
Procedure: Binding affinity to human CD40 of the obtained fusion proteins PDL1-C40-6A7-FV3A (IgG1), PDL1-C40-6A7-FV3A-IgG4, PDL1-C40-6A7-FV3C (IgG1), PDL1-C40-6A7-FV3A1 (IgG1), PDL1-C40-6A7-FV3A2 (IgG1), and PDL1-C40-6A7-FV3A3 (IgG1) were determined by surface plasmon resonance (SPR) using Biacore™ T200 biosensor equipped with pre-immobilized protein A sensor chips. The original anti-CD40 monoclonal antibody C40-6A7 IgG2 (6A7, VH SEQ ID NO: 91, VL SEQ ID NO: 92), which the scFV was derived from, was used as a control.

Sequence of human CD40 (hCD40-his) (P25942 21-193 limits assumed): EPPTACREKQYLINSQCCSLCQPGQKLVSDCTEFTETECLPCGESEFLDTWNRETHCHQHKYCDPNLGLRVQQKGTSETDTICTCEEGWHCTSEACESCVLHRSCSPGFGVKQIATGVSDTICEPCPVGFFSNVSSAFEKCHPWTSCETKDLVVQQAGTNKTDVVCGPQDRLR

Binder	Kd [pM]	koff [s⁻¹]	kon [M⁻¹ s⁻¹]
C40-6A7 (IgG2) (antibody, V domains shown, IgG2; also called original anti-CD40 monoclonal antibody) VH: QVQLVQSGAEVKKPGASVKLSCKASGYTFISYYIYWVKQAPGQGLEWIGGINPRNGGTNFNEKFKSRATLTVDTSISTAYMELSRLRSEDTAVYYCTRHGNGVYWGQGTTLTVSS VL: DVVMTQSPLSLPVTLGQPASISCRSSQSLLHSNGNTYLHWYQQRPGQSPNHLIYQVSNRFSGVPDRFSGSGSGTDFTLKISRVEAEDVGVYFCSQTTHVPWTFGGGTKVEIK	3090	0.00171	554000
PDL1-C40-6A7-FV3A1 (IgG1) (bispecific antibody, IgG1) heavy: EVQLLESGGGLVQPGGSLRLSCAASGFTFSSYIMMWVRQAPGKGLEWVSSIYPSGGITFYADTVKGRFTISRDNSKNTLYLQMNSLRAEDTAVYYCARIKLGTVTTVDYWGQGTLVTVSSASTKGPSVFPLAPSSKSTSGGTAALGCLVKDYFPEPVTVSWNSGALTSGVHTFPAVLQSSGLYSLSSVVTVPSSSLGTQTYICNVNHKPSNTKVDKKVEPKSCDKTHTCPPCPAPELLGGPSVFLFPPKPKDTLMISRTPEVTCVVVDVSHEDPEVKFNWYVDGVEVHNAKTKPREEQYNSTYRVVSVLTVLHQDWLNGKEYKCKVSNKALPAPIEKTISKAKGQPREPQVYTLPPSRDELGGGGSGGGGSDVVMTQSPLSLPVTLGQPASISCRSSQSLLHSNGNTYLHWYQQRPGQSPNHLIYQVSNRFSGVPDRFSGSGSGTDFTLKISRVEAEDVGVYFCSQTTHVPWTFGCGTKVEIKGGGGSGGGGSGGGGSGGGGSQVQLVQSGAEVKKPGASVKLSCKASGYTFISYYIYWVKQAPGQCLEWIGGINPRNGGTNFNEKFKSRATLTVDTSISTAYMELSRLRSEDTAVYYCTRHGNGVYWGQGTTLTVSSGGGGSGGGGSTKNQVSLTCLVKGFYPSDIAVEWESNGQPENNYKTTPPVLDSDGSFFLYSKLTVDKSRWQQGNVFSCSVMHEALHNHYTQKSLSLSPGK light: QSALTQPASVSGSPGQSITISCTGTSSDVGGYNYVSWYQQHPGKAPKLMIYDVSNRPSGVSNRFSGSKSGNTASLTISGLQAEDEADYYCSSYTSSSTRVFGTGTKVTVLGQPKANPTVTLFPPSSEELQANKATLVCLISDFYPGAVTVAWKADGSPVKAGVETTKPSKQSNNKYAASSYLSLTPEQWKSHRSYSCQVTHEGSTVEKTVAPTECS	630	0.000388	616000
PDL1-C40-6A7-FV3A2 (IgG1) (bispecific antibody, IgG1; scFv inserted between EU 359 and 360) heavy: EVQLLESGGGLVQPGGSLRLSCAASGFTFSSYIMMWVRQAPGKGLEWVSSIYPSGGITFYADTVKGRFTISRDNSKNTLYLQMNSLRAEDTAVYYCARIKLGTVTTVDYWGQGTLVTVSSASTKGPSVFPLAPSSKSTSGGTAALGCLVKDYFPEPVTVSWNSGALTSGVHTFPAVLQSSGLYSLSSVVTVPSSSLGTQTYICNVNHKPSNTKVDKKVEPKSCDKTHTCPPCPAPELLGGPSVFLFPPKPKDTLMISRTPEVTCVVVDVSHEDPEVKFNWYVDGVEVHNAKTKPREEQYNSTYRVVSVLTVLHQDWLNGKEYKCKVSNKALPAPIEKTISKAKGQPREPQVYTLPPSRDELTGGGGSGGGGSDVVMTQSPLSLPVTLGQPASISCRSSQSLLHSNGNTYLHWYQQRPGQSPNHLIYQVSNRFSGVPDRFSGSGSGTDFTLKISRVEAEDVGVYFCSQTTHVPWTFGCGTKVEIKGGGGSGGGGSGGGGSGGGGSQVQLVQSGAEVKKPGASVKLSCKASGYTFISYYIYWVKQAPGQCLEWIGGINPRNGGTNFNEKFKSRATLTVDTSISTAYMELSRLRSEDTAVYYCTRHGNGVYWGQGTTLTVSSGGGGSGGGGSKNQVSLTCLVKGFYPSDIAVEWESNGQPENNYKTTPPVLDSDGSFFLYSKLTVDKSRWQQGNVFSCSVMHEALHNHYTQKSLSLSPGK light: QSALTQPASVSGSPGQSITISCTGTSSDVGGYNYVSWYQQHPGKAPKLMIYDVSNRPSGVSNRFSGSKSGNTASLTISGLQAEDEADYYCSSYTSSSTRVFGTGTKVTVLGQPKANPTVTLFPPSSEELQANKATLVCLISDFYPGAVTVAWKADGSPVKAGVETTKPSKQSNNKYAASSYLSLTPEQWKSHRSYSCQVTHEGSTVEKTVAPTECS	847	0.000375	443000

Now from value to binder:

Kd [pM]	koff [s⁻¹]	kon [M⁻¹ s⁻¹]	Binder
1040	0.000379	364000	PDL1-C40-6A7-FV3A3 (IgG1) (bispecific antibody, IgG1; scFv inserted between EU 360 and 361) heavy: EVQLLESGGGLVQPGGSLRLSCAASGFTFSSYIMMWVRQAPGKGLEWVSSIYPSGGITFYADTVKGRFTISRDNSKNTLYLQMNSLRAEDTAVYYCARIKLGTVTTVDYWGQGTLVTVSSASTKGPSVFPLAPSSKSTSGGTAALGCLVKDYFPEPVTVSWNSGALTSGVHTFPAVLQSSGLYSLSSVVTVPSSSLGTQTYICNVNHKPSNTKVDKKVEPKSCDKTHTCPPCPAPELLGGPSVFLFPPKPKDTLMISRTPEVTCVVVDVSHEDPEVKFNWYVDGVEVHNAKTKPREEQYNSTYRVVSVLTVLHQDWLNGKEYKCKVSNKALPAPIEKTISKAKGQPREPQVYTLPPSRDELTKGGGGSGGGGSDVVMTQSPLSLPVTLGQPASISCRSSQSLLHSNGNTYLHWYQQRPGQSPNHLIYQVSNRFSGVPDRFSGSGSGTDFTLKISRVEAEDVGVYFCSQTTHVPWTFGCGTKVEIKGGGGSGGGGSGGGGSGGGGSQVQLVQSGAEVKKPGASVKLSCKASGYTFISYYIYWVKQAPGQCLEWIGGINPRNGGTNFNEKFKSRATLTVDTSISTAYMELSRLRSEDTAVYYCTRHGNGVYWGQGTTLTVSSGGGGSGGGGSNQVSLTCLVKGFYPSDIAVEWESNGQPENNYKTTPPVLDSDGSFFLYSKLTVDKSRWQQGNVFSCSVMHEALHNHYTQKSLSLSPGK light: QSALTQPASVSGSPGQSITISCTGTSSDVGGYNYVSWYQQHPGKAPKLMIYDVSNRPSGVSNRFSGSKSGNTASLTISGLQAEDEADYYCSSYTSSSTRVFGTGTKVTVLGQPKANPTVTLFPPSSEELQANKATLVCLISDFYPGAVTVAWKADGSPVKAGVETTKPSKQSNNKYAASSYLSLTPEQWKSHRSYSCQVTHEGSTVEKTVAPTECS
865	0.000472	546000	PDL1-C40-6A7-FV3C (IgG1) (bispecific antibody, IgG1; scFv inserted between EU 384 and 385) heavy: EVQLLESGGGLVQPGGSLRLSCAASGFTFSSYIMMWVRQAPGKGLEWVSSIYPSGGITFYADTVKGRFTISRDNSKNTLYLQMNSLRAEDTAVYYCARIKLGTVTTVDYWGQGTLVTVSSASTKGPSVFPLAPSSKSTSGGTAALGCLVKDYFPEPVTVSWNSGALTSGVHTFPAVLQSSGLYSLSSVVTVPSSSLGTQTYICNVNHKPSNTKVDKKVEPKSCDKTHTCPPCPAPELLGGPSVFLFPPKPKDTLMISRTPEVTCVVVDVSHEDPEVKFNWYVDGVEVHNAKTKPREEQYNSTYRVVSVLTVLHQDWLNGKEYKCKVSNKALPAPIEKTISKAKGQPREPQVYTLPPSRDELTKNQVSLTCLVKGFYPSDIAVEWESNGGGGSGGGGSDVVMTQSPLSLPVTLGQPASISCRSSQSLLHSNGNTYLHWYQQRPGQSPNHLIYQVSNRFSGVPDRFSGSGSGTDFTLKISRVEAEDVGVYFCSQTTHVPWTFGCGTKVEIKGGGGSGGGGSGGGGSGGGGSQVQLVQSGAEVKKPGASVKLSCKASGYTFISYYIYWVKQAPGQCLEWIGGINPRNGGTNFNEKFKSRATLTVDTSISTAYMELSRLRSEDTAVYYCTRHGNGVYWGQGTTLTVSSGGGGSGGGGSGQPENNYKTTPPVLDSDGSFFLYSKLTVDKSRWQQGNVFSCSVMHEALHNHYTQKSLSLSPGK light: QSALTQPASVSGSPGQSITISCTGTSSDVGGYNYVSWYQQHPGKAPKLMIYDVSNRPSGVSNRFSGSKSGNTASLTISGLQAEDEADYYCSSYTSSSTRVFGTGTKVTVLGQPKANPTVTLFPPSSEELQANKATLVCLISDFYPGAVTVAWKADGSPVKAGVETTKPSKQSNNKYAASSYLSLTPEQWKSHRSYSCQVTHEGSTVEKTVAPTECS
1090	0.000427	391000	PDL1-C40-6A7-FV3A (IgG1) (bispecific antibody, IgG1; also called G3) heavy: EVQLLESGGGLVQPGGSLRLSCAASGFTFSSYIMMWVRQAPGKGLEWVSSIYPSGGITFYADTVKGRFTISRDNSKNTLYLQMNSLRAEDTAVYYCARIKLGTVTTVDYWGQGTLVTVSSASTKGPSVFPLAPSSKSTSGGTAALGCLVKDYFPEPVTVSWNSGALTSGVHTFPAVLQSSGLYSLSSVVTVPSSSLGTQTYICNVNHKPSNTKVDKKVEPKSCDKTHTCPPCPAPELLGGPSVFLFPPKPKDTLMISRTPEVTCVVVDVSHEDPEVKFNWYVDGVEVHNAKTKPREEQYNSTYRVVSVLTVLHQDWLNGKEYKCKVSNKALPAPIEKTISKAKGQPREPQVYTLPPSRDEGGGGSGGGGSDVVMTQSPLSLPVTLGQPASISCRSSQSLLHSNGNTYLHWYQQRPGQSPNHLIYQVSNRFSGVPDRFSGSGSGTDFTLKISRVEAEDVGVYFCSQTTHVPWTFGCGTKVEIKGGGGSGGGGSGGGGSGGGGSQVQLVQSGAEVKKPGASVKLSCKASGYTFISYYIYWVKQAPGQCLEWIGGINPRNGGTNFNEKFKSRATLTVDTSISTAYMELSRLRSEDTAVYYCTRHGNGVYWGQGTTLTVSSGGGGSGGGGSVSLTCLVKGFYPSDIAVEWESNGQPENNYKTTPPVLDSDGSFFLYSKLTVDKSRWQQGNVFSCSVMHEALHNHYTQKSLSLSPGK light: QSALTQPASVSGSPGQSITISCTGTSSDVGGYNYVSWYQQHPGKAPKLMIYDVSNRPSGVSNRFSGSKSGNTASLTISGLQAEDEADYYCSSYTSSSTRVFGTGTKVTVLGQPKANPTVTLFPPSSEELQANKATLVCLISDFYPGAVTVAWKADGSPVKAGVETTKPSKQSNNKYAASSYLSLTPEQWKSHRSYSCQVTHEGSTVEKTVAPTECS
